Results as given in article PMC10770428 (Current Research in Structural Biology, 2023).

B1: WW1 FNBP4 (amino acids 214–430) (domain or fragment, UniProt Q8N3X1 214-430, looked up)
chain: GIEMGDWQEVWDENTGCYYYWNTQTNEVTWELPQYLATQVQGLQHYQPSSVPGAETSFVVNTDIYSKEKTISVSSSKSGPVIAKREVKKEVNEGIQALSNSEEEKKGVAASLLAPLLPEGIKEEEERWRRKVICKEEPVSEVKETSTTVEEATTIVKPQEIMLDNIEDPSQEDLCSVVQSGESEEEEEQDTLELELVLERKKAELRALEEGDGSVSG
B2: N-terminal WW1-WW2 FNBP4 (amino acids 214–629) (domain or fragment, UniProt Q8N3X1 214-629, looked up)
chain: GIEMGDWQEVWDENTGCYYYWNTQTNEVTWELPQYLATQVQGLQHYQPSSVPGAETSFVVNTDIYSKEKTISVSSSKSGPVIAKREVKKEVNEGIQALSNSEEEKKGVAASLLAPLLPEGIKEEEERWRRKVICKEEPVSEVKETSTTVEEATTIVKPQEIMLDNIEDPSQEDLCSVVQSGESEEEEEQDTLELELVLERKKAELRALEEGDGSVSGSSPRSDISQPASQDGMRRLMSKRGKWKMFVRATSPESTSRSSSKTGRDTPENGETAIGAENSEKIDENSDKEMEVEESPEKIKVQTTPKVEEEQDLKFQIGELANTLTSKFEFLGINRQSISNFHVLLLQTETRIADWREGALNGNYLKRKLQDAAEQLKQYEINATPKGWSCHWDRDHRRYFYVNEQSGESQWEFPDG
B3: FH1 FMN1 (amino acids 870–970) (domain or fragment, mouse, UniProt Q05860 870-970, looked up)
chain: PPAPPTPPPLPPPLIPPPPPLPPGLGPLPPAPPIPPVCPVSPPPPPPPPPPTPVPPSDGPPPPPPPPPPLPNVLALPNSGGPPPPPPPPPPGLAPPPPPGL

Key:
[1] = target: T1, C-terminal FH1-FH2 FMN1 (amino acids 870–1466) (mouse, UniProt Q05860 870-1466); test: SPR
T1 sequence (looked up): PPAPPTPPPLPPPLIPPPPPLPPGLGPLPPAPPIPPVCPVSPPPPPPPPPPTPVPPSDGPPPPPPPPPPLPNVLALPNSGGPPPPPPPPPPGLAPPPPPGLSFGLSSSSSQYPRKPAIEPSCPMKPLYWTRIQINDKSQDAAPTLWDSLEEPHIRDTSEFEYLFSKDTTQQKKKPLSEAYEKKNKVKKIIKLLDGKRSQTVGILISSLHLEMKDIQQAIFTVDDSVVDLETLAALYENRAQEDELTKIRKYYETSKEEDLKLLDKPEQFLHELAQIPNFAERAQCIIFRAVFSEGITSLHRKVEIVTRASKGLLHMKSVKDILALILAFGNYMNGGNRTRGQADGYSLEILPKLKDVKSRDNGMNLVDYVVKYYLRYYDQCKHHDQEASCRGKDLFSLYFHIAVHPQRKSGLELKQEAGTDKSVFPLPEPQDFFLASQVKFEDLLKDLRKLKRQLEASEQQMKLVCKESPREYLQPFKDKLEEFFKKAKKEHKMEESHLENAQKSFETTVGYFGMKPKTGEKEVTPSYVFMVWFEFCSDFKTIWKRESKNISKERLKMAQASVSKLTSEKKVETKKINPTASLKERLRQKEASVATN

[2] = target: B2; test: SPR

With B1 the Kd [1] was 2 nM, the koff [1] was 0.00127 s⁻¹ and the kon [1] was 637000 M⁻¹ s⁻¹.

In the case of B2, the Kd [1] is reported as 1.84 nM, the koff [1] is reported as 0.000571 s⁻¹ and the kon [1] is reported as 310000 M⁻¹ s⁻¹.

B3 was tested, and the Kd [2] was 0.56 nM, the koff [2] was 0.0107 s⁻¹ and the kon [2] was 1.94e+07 M⁻¹ s⁻¹.
